T1: biotinylated splice variant of the extracellular domain of human CD33 (residues 140-259, constant domain … (human, UniProt P20138 140-259, biotinylated with BirA-GST (Avi tag)))
T1 construct: Bought from Evitria; a second Fc chain may be present, not described; also called splice variant CD33; spliced variant; not shown: C-terminal Fc tag and Avi tag
T1 chain: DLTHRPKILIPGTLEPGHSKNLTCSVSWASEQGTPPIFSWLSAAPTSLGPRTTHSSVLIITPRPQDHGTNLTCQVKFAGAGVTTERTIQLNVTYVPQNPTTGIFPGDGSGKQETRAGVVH

B1: DARPin® protein #1, monovalent CD33 specific binding protein (designed binder)
chain: MRGSHHHHHHGSDLGWKLLLAASRGQDDEVRILLAAGADVNAKDIDEGYTPLHIAAYYGHLEIVEVLLKAGADVNAKDRYGKTPLHLAAISGHEDIAEVLLKAGADVNAQDDKGDTPADLAADYGHEDIAEVLQKAA
notes: Crude extract in the HTRF; also called DARPin® protein #91 [sic]
B2: DARPin® protein #14, monovalent CD33 specific binding protein (designed binder)
chain: MRGSHHHHHHGSDLGWKLLNAAIAGQDDEVRILLAAGADVNAKDTEYGWTPLHIAASDGHLEIVEVLLKAGADVNAKDYAGSTPLHAAAFVGHLEIVEVLLKAGADVNAQDHQGQTPADLAAQQGHVDIAEVLQKAA
notes: Crude extract in the HTRF
B3: DARPin® protein #9 in TCE format (formatted with a CD3-specific ankyrin repeat domain) (designed binder)
chain: MRGSHHHHHHGSDLGYKLLWAASAGQDDEVRILLAAGADVNAKDKDGATPLHFAAAKGHLEIVEVLLKAGADVNAKDNRGATPLHYVAAASGHLEIVEVLLKAGADVNAQDEWGNTPADLAAIYGHGDIAEVLQKAA
notes: Crude extract HTRF construct also carried a C-terminal Flag tag; not shown: which one,
B4: DARPin® protein #15 in TCE format (formatted with a CD3-specific ankyrin repeat domain) (designed binder)
chain: MRGSHHHHHHGSDLGKKLLQAARAGQLDEVRELLKAGADVNAKDLIGWTPLHLAAHYGHLEIVEVLLKAGADVNAKDAQGWTPLHIAAWEGHLEIVEVLLKAGADVNAKDWTGETPLHLAAFEGHLEIVEVLLKAGADVNAQDKSGKTPADLAARAGHQDIAEVLQKAA
notes: as for B3
B5: DARPin® protein #5 in TCE format (formatted with a CD3-specific ankyrin repeat domain) (designed binder)
chain: MRGSHHHHHHGSDLSKKLLQAARAGQLDEVRELLKAGADVNAKDQIGQTPLHLAAQSGHLEIVEVLLKAGADVNAKDTEGWTPLHVAAWEGHLEIVEVLLKAGADVNAKDWTGETPLHLAAYQGHLEIVEVLLKAGADVNAQDKSGKTPADLAARAGHQDIAEVLQKAA
notes: as for B3
B6: DARPin® protein #3 in TCE format (formatted with a CD3-specific ankyrin repeat domain) (designed binder)
chain: MRGSHHHHHHGSDLGVKLLRAAFHGQDDEVRILLAAGADVNAKDTDGETPLHYAAQFGHLEIVEVLLKAGADVNAKDAYGATPLHWAAWHGHLEIVEVLLKAGADVNAQDVSGATPADLAAKVGHEDIAEVLQKAA
notes: as for B3
B7: DARPin® protein #1 in TCE format (formatted with a CD3-specific ankyrin repeat domain) (designed binder)
chain: MRGSHHHHHHGSDLGWKLLLAASRGQDDEVRILLAAGADVNAKDIDEGYTPLHIAAYYGHLEIVEVLLKAGADVNAKDRYGKTPLHLAAISGHEDIAEVLLKAGADVNAQDDKGDTPADLAADYGHEDIAEVLQKAA
notes: not shown: which one,
B8: DARPin® protein #14 in TCE format (formatted with a CD3-specific ankyrin repeat domain) (designed binder)
chain: MRGSHHHHHHGSDLGWKLLNAAIAGQDDEVRILLAAGADVNAKDTEYGWTPLHIAASDGHLEIVEVLLKAGADVNAKDYAGSTPLHAAAFVGHLEIVEVLLKAGADVNAQDHQGQTPADLAAQQGHVDIAEVLQKAA
notes: as for B3
B9: DARPin® protein #8 in TCE format (formatted with a CD3-specific ankyrin repeat domain) (designed binder)
chain: MRGSHHHHHHGSDLGWKLLSAATLGQDDEVRILLAAGADVNAKDEWGKTPLHWAASTGHLEIVEVLLKAGADVNAKDLWGHTPLHEAAAKGHLEIVEVLLKAGADGNAQDNIGDTPADLAAYQGHEDIAEVLQKAA
notes: as for B3
B10: DARPin® protein #7 in TCE format (formatted with a CD3-specific ankyrin repeat domain) (designed binder)
chain: MRGSHHHHHHGSDLGLKLLRAAYDGQDDEVRILLAAGADVNAKDWQGFTPLHYAAVLGHLEIVEVLLKAGADVNAKDQEGATPLHLAALHGHLEIVEVLLKAGADVNAQDESGWTPADLAAKWGHEDIAEVLQKAA
notes: as for B3
B11: DARPin® protein #16 in TCE format (formatted with a CD3-specific ankyrin repeat domain) (designed binder)
chain: MRGSHHHHHHGSDLGKKLLQAARAGQLDEVRELLKAGADVNAKDHQGETPLHLAASQGHLEIVEVLLKAGADVNAKDLAGYTPLHLAAWTGHLEIVEVLLKAGADVNAKDQWGRTPLHIAAASGHLEIVEVLLKAGADVNAQDKSGKTPADLAARAGHQDIAEVLQKAA
notes: as for B3

Biological target: T1, biotinylated splice variant of the …
Assay: HTRF, 6 nM biotinylated hCD33-C2-Fc(kih)-Avi, Strep-Tb and anti-6His-d2
Description: First, a binding experiment has been performed against full-length (V/C2 domains) and truncated CD33 (C2 domain) by HTRF, using crude extracts of the three CD33-specific binding proteins DARPin® protein #1. DARPin® protein #9 and DARPin® protein #14. Binding to the CD33 target was detected using Strep-Tb and anti-His-D2 HTRF reagents. In brief, crude extract of DARPi® protein #1, DARPin® protein #9 and DARPin® protein #14 was diluted 1:250 (final 1:1000) with PBSTB and added into a 384-well plate (PerkinElmer, 6008280). Then, the biotinylated target_hCD33-Fc(kih)-Avi (full-length CD33; purchased from Evitria) and hCD33-C2-Fc(kih)-Avi (truncated CD33; purchased from Evitria) respectively was diluted to 8 nM (final 6 nM) and mixed with the HTRF reagents Mab Anti-6His-d2 and Strep-Tb, both 1:200 diluted (final 1:400). As depicted in FIG. 5, all three CD33 specific binding proteins DARPin® protein #1. DARPin® protein #9 and DARPin® protein #14 show binding to the full-length CD33 but only DARPin® protein #9 binds to the truncated CD33 target.

Binder	binding result
B1	no binding
B2	no binding

Biological target: T1, biotinylated splice variant of the …
Assay: SPR (ProteOn XPR36), biotinylated splice variant CD33 on NLC chip, DARPin at 50 nM, single trace

Binder	Kd [nM]
B3	1.9

Biological target: T1, biotinylated splice variant of the …
Assay: SPR (ProteOn XPR36), biotinylated splice variant CD33 on NLC chip

Binder	binding result
B4	no binding (tested: 50 nM)
B5	no binding (tested: 50 nM)
B6	no binding (tested: 50 nM)
B7	no binding (tested: 50 nM)
B8	no binding (tested: 50 nM)
B9	no binding (tested: 50 nM)
B10	no binding (tested: 50 nM)
B11	no binding (tested: 50 nM)

Source: US20240317852A1 (Molecular Partners, published 2024)
